Data taken from article PMC4374921, “Inhibition of Type VI Secretion by an Anti-TssM Llama Nanobody” (PLoS ONE, 2015).

T1: periplasmic domain of the EAEC TssM protein (enteroaggregative Escherichia coli …)
T1 construct: TssM of enteroaggregative Escherichia coli (EAEC), a 1129-amino-acid inner membrane protein; periplasmic domain, amino-acids 386-1129; also called TssM periplasmic domain; source: recombinant, produced and purified as described previously [11]
T1 chain: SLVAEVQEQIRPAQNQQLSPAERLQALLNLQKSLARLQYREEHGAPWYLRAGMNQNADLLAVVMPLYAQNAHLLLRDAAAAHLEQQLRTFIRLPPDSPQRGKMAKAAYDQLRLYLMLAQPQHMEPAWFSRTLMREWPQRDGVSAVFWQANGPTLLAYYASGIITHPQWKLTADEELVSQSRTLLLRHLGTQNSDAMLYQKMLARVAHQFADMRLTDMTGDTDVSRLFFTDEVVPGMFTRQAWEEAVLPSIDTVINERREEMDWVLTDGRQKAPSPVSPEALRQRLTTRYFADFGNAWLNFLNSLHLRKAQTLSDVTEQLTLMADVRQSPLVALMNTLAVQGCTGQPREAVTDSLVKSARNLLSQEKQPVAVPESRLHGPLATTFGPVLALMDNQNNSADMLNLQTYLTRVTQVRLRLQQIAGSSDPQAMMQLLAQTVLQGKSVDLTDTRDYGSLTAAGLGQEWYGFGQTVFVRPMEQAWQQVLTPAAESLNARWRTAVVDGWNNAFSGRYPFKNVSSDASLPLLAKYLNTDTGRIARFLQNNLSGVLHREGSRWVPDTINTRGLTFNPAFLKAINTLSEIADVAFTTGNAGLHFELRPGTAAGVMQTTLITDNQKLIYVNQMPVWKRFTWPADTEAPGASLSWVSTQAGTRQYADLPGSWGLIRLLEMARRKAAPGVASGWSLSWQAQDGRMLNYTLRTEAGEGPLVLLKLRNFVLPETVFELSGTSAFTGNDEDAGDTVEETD


Target: T1, periplasmic domain of the EAEC TssM …
Assay: SPR; nanobodies covalently linked to a CM5 chip, TssMp injected (1.95 to 250 nM); Biacore X100; multi-cycle kinetics; regeneration with glycine-HCl pH 2.5; apparent KDs
Settings: both partners purified

Binder | Kd [nM] | koff [s⁻¹] | kon [M⁻¹ s⁻¹]
anti-TssM nanobody nb25 (VHH, llama VHH raised against TssMp; CDR3 of 19 residues, disulfide bridge between Cys-106 and CDR2 Cys-50; source: E. coli WK6 periplasm (pHEN6, pelB signal peptide), purified (Ni-NTA, Superdex 75)) VHH: QVQLVESGGGLVQAGGSLRLSCAASGFTFEDYAIGWFRQAPGKEREGVSCISNLDGSTYYPDSVKGRFTASSDKAKNMVYLQMNSLKPEDTAVYYCAAVNAQGIYCTDYIIGPYGMDYWGKGTQVTVSS | 1.61 ± 0.05 | 0.00056 | 350000
anti-TssM nanobody nb42 (VHH, very similar to nb25, CDR3 identical to that of nb25; No structure was solved for nb42; also called nb25 variant nb42; source: E. coli WK6 periplasm (pHEN6, pelB signal peptide), purified (Ni-NTA, Superdex 75)) VHH: DVQLVESGGGLVQAGGSLRLSCAASGFTFGDYAIGWFRQAPGKEREGVSCFSNSDGSTYYADSVKGRFTSSSDNAKNTQYLQMNSLKPEDTAIYYCAAVKAQGIYCTEYIIGPYGMDYWGKGTLVTVSS | 1.76 ± 0.08 | 0.00036 | 204000
anti-TssM nanobody nb02 (VHH, llama VHH raised against TssMp; CDR3 of 14 residues; source: E. coli WK6 periplasm (pHEN6, pelB signal peptide), purified (Ni-NTA, Superdex 75)) VHH: DVQLVESGGGLVHPGGSLRLSCAASGRTFSDYALGWFRQAPGKDREFVAAISWSGGSTYYADSVQGRFTISRDNDKNSVYLQMNSLKPEDTAVYYCAADKYYTGPGGESVYDYWGRGTQVTVSS | 66.8 ± 2.5 | 0.0402 | 602000
